T1: Human VEGF121 (R&D SYSTEMS Cat #4644-VS) (human, UniProt P15692-9 27-147)
T1 sequence (looked up): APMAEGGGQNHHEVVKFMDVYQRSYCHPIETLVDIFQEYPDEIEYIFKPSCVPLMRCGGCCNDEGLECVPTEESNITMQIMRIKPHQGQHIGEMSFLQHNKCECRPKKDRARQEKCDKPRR


What was measured:
Human VEGF165 (REGN110) [1] = target: T2, Human VEGF165 (REGN110) (human, UniProt P15692-4 27-191); assay: SPR (Biacore 3000), 25C, trap captured by REGN18, hVEGF165 injected
T2 construct: also called hVEGF165; REGN110-L9
Description: (§1) Equilibrium dissociation constants (KD values) for human VEGF₁₆₅ binding to various purified VEGF mini-trap constructs were determined using a real-time surface plasmon resonance biosensor using a Biacore 3000 instrument. All binding studies were performed in 10 mM HEPES, 150 mM NaCl, 3 mM EDTA, and 0.05% v/v Surfactant Tween-20; pH 7.4 (HBS-ET) running buffer at 25° C. The Biacore sensor surface was first derivatized by amine coupling with a monoclonal mouse anti-VEGFR1 antibody (REGN18) to capture VEGF mini-trap constructs. Binding studies were performed on the following human VEGF reagents: human VEGF₁₆₅. […] Dissociation of bound VEGF₁₆₅ reagent from VEGF mini-trap constructs was monitored for 60 minutes in HBS-ET running buffer. Kinetic association (ka) and dissociation (kd) rate constants were determined by fitting the real-time sensorgrams to a 1:1 binding model using Scrubber 2.0c curve fitting software. Binding dissociation equilibrium constants (KD) and dissociative half-lives (t1/2) were calculated from the kinetic rate constants as: […]

[2] = target: T1, Human VEGF121 (R&D SYSTEMS Cat #4644-VS); assay: cell-based or functional assay
[3] = target: T1, Human VEGF121 (R&D SYSTEMS Cat #4644-VS); assay: cell-based or functional assay; remark: listed apart in the source
[4] = target: T1, Human VEGF121 (R&D SYSTEMS Cat #4644-VS); assay: cell-based or functional assay; remark: listed apart in the source
[5] = target: T1, Human VEGF121 (R&D SYSTEMS Cat #4644-VS); assay: cell-based or functional assay; remark: listed apart in the source
Human VEGF165 (REGN110) [6] = target: T2, Human VEGF165 (REGN110); assay: SPR, 25C, trap captured by REGN18, hVEGF165 injected
Description: as §1

Human VEGF165 (REGN110) [7] = target: T2, Human VEGF165 (REGN110); assay: cell-based or functional assay
[8] = target: T1, Human VEGF121 (R&D SYSTEMS Cat #4644-VS); assay: cell-based or functional assay; remark: listed apart in the source

| Binder | 2.5 nM hVEGF165 Bound (RU) (Human VEGF165 (REGN110) [1]) | Kd (Human VEGF165 (REGN110) [1]) | koff (Human VEGF165 (REGN110) [1]) | kon (Human VEGF165 (REGN110) [1]) | t½ (Human VEGF165 (REGN110) [1]) | IC50, Inhibition of 20 pM VEGF121, VEGFR1 assay (luciferase) [2] | IC50 (read off the curve); NFkB-luciferase reporter (RLU), 293/D9/VEGFR1 cells, VEGF121 constant 40 pM [E] [3] | IC50 (read off the curve); NFkB-luciferase reporter (RLU), 293/D9/VEGFR1 cells, VEGF121 constant 40 pM [D] [4] | IC50 (read off the curve); NFkB-luciferase reporter (RLU), 293/D9/VEGFR1 cells, VEGF121 constant 40 pM [B] [5] | 2 nM VEGF165 Bound (RU) (Human VEGF165 (REGN110) [6]) | Kd (Human VEGF165 (REGN110) [6]) | koff (Human VEGF165 (REGN110) [6]) | kon (Human VEGF165 (REGN110) [6]) | t½ (Human VEGF165 (REGN110) [6]) | IC50, VEGFR1 40 pM VEGF165 (REGN110) (luciferase) (Human VEGF165 (REGN110) [7]) | IC50, VEGFR1 40 pM R&D VEGF121 (luciferase) [8] |
| --- | --- | --- | --- | --- | --- | --- | --- | --- | --- | --- | --- | --- | --- | --- | --- | --- |
| REGN10103, VEGF mini-trap hIgG2 Fc w/4Cys (other) SDTGRPFVEMYSEIPEIIHMTEGRELVIPCRVTSPNITVTLKKFPLDTLIPDGKRIIWDSRKGFIISNATYKEIGLLTCEATVNGHLYKTNYLTHRQTNTIIDVVLSPSHGIELSVGEKLVLNCTARTELNVGIDFNWEYPSSKHQHKKLVNRDLKTQSGSEMKKFLSTLTIDGVTRSDQGLYTCAASSGLMTKKNSTFVRVHEKERKCCVECPPCPAPPVA | 14.8 RU | ≤ 1.08 pM | ≤ 1e-05 s⁻¹ | 9.3e+06 M⁻¹ s⁻¹ | ≥ 19.2 h | 2.11e-11 M | ~2e-11 M |  |  |  |  |  |  |  |  |  |
| mREGN10187, VEGF mini-trap hIgG4 stealth Fc (other, IdeS cleaved from REGN10187; also called Mini-REGN10187) SDTGRPFVEMYSEIPEIIHMTEGRELVIPCRVTSPNITVTLKKFPLDTLIPDGKRIIWDSRKGFIISNATYKEIGLLTCEATVNGHLYKTNYLTHRQTNTIIDVVLSPSHGIELSVGEKLVLNCTARTELNVGIDFNWEYPSSKHQHKKLVNRDLKTQSGSEMKKFLSTLTIDGVTRSDQGLYTCAASSGLMTKKNSTFVRVHEKESKYGPPCPPCPAPPVA | 14.3 RU | ≤ 1.37 pM | ≤ 1e-05 s⁻¹ | 7.3e+06 M⁻¹ s⁻¹ | ≥ 19.2 h | 1.32e-11 M |  | ~1e-11 M |  |  |  |  |  |  |  |  |
| REGN10187, VEGF Trap hIgG4 stealth Fc (Fc fusion) SDTGRPFVEMYSEIPEIIHMTEGRELVIPCRVTSPNITVTLKKFPLDTLIPDGKRIIWDSRKGFIISNATYKEIGLLTCEATVNGHLYKTNYLTHRQTNTIIDVVLSPSHGIELSVGEKLVLNCTARTELNVGIDFNWEYPSSKHQHKKLVNRDLKTQSGSEMKKFLSTLTIDGVTRSDQGLYTCAASSGLMTKKNSTFVRVHEKESKYGPPCPPCPAPPVAGPSVFLFPPKPKDTLMISRTPEVTCVVVDVSQEDPEVQFNWYVDGVEVHNAKTKPREEQFNSTYRVVSVLTVLHQDWLNGKEYKCKVSNKGLPSSIEKTISKAKGQPREPQVYTLPPSQEEMTKNQVSLTCLVKGFYPSDIAVEWESNGQPENNYKTTPPVLDSDGSFFLYSRLTVDKSRWQEGNVFSCSVMHEALHNHYTQKSLSLSLGK | 10.5 RU | 1.82 pM | 1.73e-05 s⁻¹ | 9.5e+06 M⁻¹ s⁻¹ | 11.1 h | 1.25e-11 M |  | ~1e-11 M |  |  |  |  |  |  |  |  |
| mREGN10104, VEGF mini-trap hIgG1 stealth Fc (other, IdeS cleaved from REGN10104; also called Mini-REGN10104) SDTGRPFVEMYSEIPEIIHMTEGRELVIPCRVTSPNITVTLKKFPLDTLIPDGKRIIWDSRKGFIISNATYKEIGLLTCEATVNGHLYKTNYLTHRQTNTIIDVVLSPSHGIELSVGEKLVLNCTARTELNVGIDFNWEYPSSKHQHKKLVNRDLKTQSGSEMKKFLSTLTIDGVTRSDQGLYTCAASSGLMTKKNSTFVRVHEKDKTHTCPPCPAPPVA | 12.2 RU | 1.78 pM | 1.7e-05 s⁻¹ | 9.5e+06 M⁻¹ s⁻¹ | 11.3 h | 1.34e-11 M |  |  | ~1e-11 M |  |  |  |  |  |  |  |
| REGN10105 (Alexa 488) (other, tagged with Alexa Fluor 488 (AF488) through amine conjugation, also called REGN10105 AF488) SDTGRPFVEMYSEIPEIIHMTEGRELVIPCRVTSPNITVTLKKFPLDTLIPDGKRIIWDSRKGFIISNATYKEIGLLTCEATVNGHLYKTNYLTHRQTNTIIDVVLSPSHGIELSVGEKLVLNCTARTELNVGIDFNWEYPSSKHQHKKLVNRDLKTQSGSEMKKFLSTLTIDGVTRSDQGLYTCAASSGLMTKKNSTFVRVHEKVECPPCPAPPVA |  |  |  |  |  |  |  |  |  | 18 RU | ≤ 0.74 pM | ≤ 1e-05 s⁻¹ | 1.36e+07 M⁻¹ s⁻¹ | ≥ 19.2 h |  |  |
| REGN10104, VEGF Trap hIgG1 stealth Fc (Fc fusion) SDTGRPFVEMYSEIPEIIHMTEGRELVIPCRVTSPNITVTLKKFPLDTLIPDGKRIIWDSRKGFIISNATYKEIGLLTCEATVNGHLYKTNYLTHRQTNTIIDVVLSPSHGIELSVGEKLVLNCTARTELNVGIDFNWEYPSSKHQHKKLVNRDLKTQSGSEMKKFLSTLTIDGVTRSDQGLYTCAASSGLMTKKNSTFVRVHEKDKTHTCPPCPAPPVAGPSVFLFPPKPKDTLMISRTPEVTCVVVDVSQEDPEVQFNWYVDGVEVHNAKTKPREEQFNSTYRVVSVLTVLHQDWLNGKEYKCKVSNKGLPSSIEKTISKAKGQPREPQVYTLPPSRDELTKNQVSLTCLVKGFYPSDIAVEWESNGQPENNYKTTPPVLDSDGSFFLYSKLTVDKSRWQQGNVFSCSVMHEALHNHYTQKSLSLSPGK | 7.3 RU | 1.1 pM | 1.01e-05 s⁻¹ | 9.2e+06 M⁻¹ s⁻¹ | 19.1 h | 1.91e-11 M |  |  | ~2e-11 M |  |  |  |  |  |  |  |
| REGN11095, VEGF mini-trap hIgG1 Mut GGGL Fc (other, also called Mini-REGN10514; mREGN10514) SDTGRPFVEMYSEIPEIIHMTEGRELVIPCRVTSPNITVTLKKFPLDTLIPDGKRIIWDSRKGFIISNATYKEIGLLTCEATVNGHLYKTNYLTHRQTNTIIDVVLSPSHGIELSVGEKLVLNCTARTELNVGIDFNWEYPSSKHQHKKLVNRDLKTQSGSEMKKFLSTLTIDGVTRSDQGLYTCAASSGLMTKKNSTFVRVHEKDKTHTCPPCPGGGLLG |  |  |  |  |  |  |  |  |  | 19.4 RU | ≤ 0.86 pM | ≤ 1e-05 s⁻¹ | 1.16e+07 M⁻¹ s⁻¹ | ≥ 19.2 h | 2.19e-11 M | 2.16e-11 M |
| REGN11095 (Alexa 488) (other, tagged with Alexa Fluor 488 (AF488) through amine conjugation, also called REGN11095 AF488) SDTGRPFVEMYSEIPEIIHMTEGRELVIPCRVTSPNITVTLKKFPLDTLIPDGKRIIWDSRKGFIISNATYKEIGLLTCEATVNGHLYKTNYLTHRQTNTIIDVVLSPSHGIELSVGEKLVLNCTARTELNVGIDFNWEYPSSKHQHKKLVNRDLKTQSGSEMKKFLSTLTIDGVTRSDQGLYTCAASSGLMTKKNSTFVRVHEKDKTHTCPPCPGGGLLG |  |  |  |  |  |  |  |  |  | 14.9 RU | ≤ 0.865 pM | ≤ 1e-05 s⁻¹ | 1.16e+07 M⁻¹ s⁻¹ | ≥ 19.2 h |  |  |

Source: US20210347852A1 (Regeneron, published 2021)
